Reference: patent US9885713B2, “Diagnosis and treatment of mycobacteria infections” (priority 2013, dated 2018)
“Also recorded” adds a separate entry of the source.

What was measured:
[1] = tested on: Mycobacterium avium subsp. paratuberculosis ATCC 19851; assay: Cell binding assay: protein immobilized on gold surface, capture by SEM and fluorescence microscopy; settings: for capture/binding of MAP cells (in words): protein immobilized on gold surface, 20 μg/ml (Gp6 also 40 μg/ml)
Description: (§1) In order to assess mycophage and mycophage RBPs for their use as probes of MAP infection, Gp-10 and Gp-6 were immobilized using an established protocol (Singh et. al. Biosens. Bioelect. 26 131 (2010) and used for the specific bacterial capture. Gold Surfaces were modified by cysteamine hydrochloride followed by activation using 2% gluteraldehyde. The recombinant proteins Gp-10, Gp-6 and Gp-31 were immobilized over the surfaces in order to capture the host bacteria Mycobacterium avium subsp. paratuberculosis ATCC 19851 and Mycobacterium smegmatis mc^2155. Bacterial capture was confirmed by fluorescence microscopy and Scanning Electron Microscopy (SEM). Nonspecific attachment was prevented by using bovine serum albumin (BSA) as the blocking layer. A negative control was run in parallel where a similar gold surface was treated with all reagents, but they were not exposed to the recombinant phage proteins.
(§2) Proteins were immobilized onto cysteamine covered gold surfaces that were activated with glutaraldehyde according to the previously described protocol where RBP samples were used instead of whole phage particles. Briefly, the gold substrates were fabricated using piranha cleaned silicon substrates by sputtering a 25 nm thick gold layer. The gold substrates were sonicated in acetone, isopropanol, ethanol and MilliQ (Millipore) water for 5 min each prior to their use (Branson Ultrasonics 1510, 40 kHz frequency). The gold substrates were incubated overnight at 40° C. in a 50 mM solution of cysteamine hydrochloride (Sigma-Aldrich). The cysteamine self assembled monolayer (SAM) substrates were modified by 2% glutaraldehyde (Sigma-Aldrich) for 1 hr at room temperature and washed twice in PBS. These modified substrates were incubated in a 20 μg/ml solution of Gp10 (or Gp6) in PBS overnight at 60° C. The negative control substrate was incubated in PBS only. To block nonspecific binding of bacteria, the substrates were incubated in 1 mg/ml of bovine serum albumin (Sigma-Aldrich) and were washed twice in PBS. The protein covered substrates were exposed to 10^9 cfu/ml of mycobacterial cells in PBS for 1 hr at room temperature. The immobilized surfaces were washed in 0.05 Tween 20 (Sigma-Aldrich) before analysis. For fluorescence microscopy, the bacterial cells were stained with 50 μM resazurin (Sigma-Aldrich) for 20 min before exposure to the substrates covered with the immobilized proteins.
(§3) Bacterial cell binding to the gold surface covered with the immobilized protein was assessed as described previously. Scanning electron microscopy (SEM) and fluorescent microscopy (FM) were used to estimate the number of bacterial cells bound to the surfaces. The samples were fixed with 2% glutaraldehyde for 2 hrs at room temperature followed by a gradient of ethanol from 50% to 100% before SEM. Finally the samples were dried by nitrogen gas. SEM imaging was performed using a Hitachi S-4800/LEO 1430 microscope. Cells were prestained using 50 μM of resazurin stain (Sigma-Aldrich) for the FM-based binding assay. An Olympus IX81 microscope equipped with a FITC filter and a Roper Scientific Cool-Snaps HQ CCD Camera were Used to Record the FM Images. ImageJ Software (USA NIH) was used to analyze the microscopy images. Average numbers of cells bound to the surface are indicated on the basis of the assessment of the cell number, fields of view, and using 8 gold covered chips per test.

[2] = tested on: Mycobacterium smegmatis mc^2155; assay: as above; settings: for Capture efficiency of M. smegmatis cells: 20 μg/ml protein solution used for immobilization onto gold chip; for bacterial capture: gold surface, 20 μg/ml of RBP, Mycobacterium smegmatis mc^2155; for capture/binding of M. smegmatis cells (in words): protein immobilized on gold surface, 20 μg/ml
Description: as §1, §2, §3

[3] = tested on: M. marinum cells; assay: as above; set-up: species or system Mycobacterium marinum
Description: (§4) Mycobacteria phage L5 (HER-386) was obtained from the Felix D'Herelle Reference Centre for Bacterial Viruses (Laval University, Quebec, Canada). Mycobacterium marinum ATCC number 927, M. smegmatis mc^2 155 and M. avium subsp. paratuberculosis ATCC 19851 were used in the binding studies along with Campylobacter jejuni NCTC 11168H, Salmonella enterica subsp. enterica sv. Typhimurium ATCC 19585 and E. coli K-12. E. coli DH5α (Invitrogen) and E. coli BL21(DE3) (Invitrogen) were used for cloning and recombinant protein expression procedures, respectively. All mycobacterial strains were grown in ambient atmosphere. Middlebrook 7H9 (BD Biosciences) broth supplemented with oleic acid-albumin-dextrose catalase (BD Biosciences) and mycobactin J (Allied Monitor Inc.) was used to propagate M. smegmatis at 37° C. for 48 hrs as well as MAP cells at 37° C. for 10 days. […]
(§5) Proteins were immobilized onto cysteamine covered gold surfaces that were activated with glutaraldehyde according to the previously described protocol where RBP samples were used instead of whole phage particles. […] For fluorescence microscopy, the bacterial cells were stained with 50 μM resazurin (Sigma-Aldrich) for 20 min before exposure to the substrates covered with the immobilized proteins.
(§6) Bacterial cell binding to the gold surface covered with the immobilized protein was assessed as described previously. […]

[4] = tested on: E. coli; assay: Specificity control on protein covered gold surfaces (non-host bacteria); assay type: binding, Escherichia coli; settings: E. coli K12; protein covered gold surface
Description: (§7) The concentrations of the two RBPs of Gp6, Gp-10 and Gp31 were optimized for immobilization. […] The specificity of recognition by the RBPs was confirmed by exposing similar surfaces to E. coli EC12 and Campylobacter jejuni 11168H strains of non-host bacteria.
as §2, with “These modified substrates were incubated in a 20 μg/ml solution of Gp10 (or Gp6) in PBS overnight at 60° C. The negative control substrate was incubated in PBS only. To block nonspecific binding of bacteria, the substrates were incubated in 1 mg/ml of bovine serum albumin (Sigma-Aldrich) and were washed twice in PBS. The protein covered substrates were exposed to 10^9 cfu/ml of mycobacterial cells in PBS for 1 hr at room temperature. The immobilized surfaces were washed in 0.05 Tween 20 (Sigma-Aldrich) before analysis.” left out
as §6

[5] = tested on: Campylobacter jejuni 11168H; assay: as above; assay type: binding; settings: C. jejuni; protein covered gold surface
Description: as §7
as §2, with “These modified substrates were incubated in a 20 μg/ml solution of Gp10 (or Gp6) in PBS overnight at 60° C. The negative control substrate was incubated in PBS only. To block nonspecific binding of bacteria, the substrates were incubated in 1 mg/ml of bovine serum albumin (Sigma-Aldrich) and were washed twice in PBS. The protein covered substrates were exposed to 10^9 cfu/ml of mycobacterial cells in PBS for 1 hr at room temperature. The immobilized surfaces were washed in 0.05 Tween 20 (Sigma-Aldrich) before analysis.” left out
as §6

[6] = tested on: S. Typhimurium; assay: as above; assay type: binding, Salmonella enterica subsp. enterica sv. Typhimurium; settings: protein covered gold surface
Description: as §4, §5, §6

[7] = molecular target: T1, peptidoglycan from Bacillus subtilis (Mycobacterium phage L5, UniProt Q05285, I224V/T32I); assay: Peptidoglycan binding assay
T1 construct: pET-30a(+) vector-encoded N-terminal leader (additional residues up to the EcoRI site) (N); made in house; host or cells: E. coli BL21(DE3)
T1 sequence (Q05285 other isoform, or with tags, fused parts or gaps T32I/I224V): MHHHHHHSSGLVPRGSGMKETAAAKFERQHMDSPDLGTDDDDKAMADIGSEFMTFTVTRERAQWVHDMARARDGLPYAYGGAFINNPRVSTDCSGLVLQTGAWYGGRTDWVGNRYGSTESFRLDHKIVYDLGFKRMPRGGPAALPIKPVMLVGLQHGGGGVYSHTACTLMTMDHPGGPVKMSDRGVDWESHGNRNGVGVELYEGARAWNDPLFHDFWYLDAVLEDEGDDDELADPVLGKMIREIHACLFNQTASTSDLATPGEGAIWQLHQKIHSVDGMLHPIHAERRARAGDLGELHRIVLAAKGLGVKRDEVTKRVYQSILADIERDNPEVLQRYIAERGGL
Procedure: Dehydrated peptidoglycan from Bacillus subtilis (Sigma-Aldrich) was suspended in water to obtain a 10 mg/ml stock that was stored at −20° C. This stock was diluted further in water to obtain a 1 mg/ml working stock solution that was used in the experiments and was prepared fresh each time. A 0.1 mg/ml sample of Gp10 in PBS was incubated with peptidoglycan at a final concentration of 0.1 mg/ml for 30 min at room temperature with occasional stirring. Then, the peptidoglycan was separated from the protein solution by centrifugation (15 min at 18 000 g at 4° C.), an aliquot of the supernatant was mixed with the SDS-sample buffer and analyzed by SDS-PAGE.

B1: Gp6: recombinant His-tagged minor tail protein Gp6 of mycobacteriophage L5 (SEQ ID NO: 1) (protein)
chain: MHHHHHHSSGLVPRGSGMKETAAAKFERQHMDSPDLGTDDDDKAMADIGSEFMADLGNPLDLEMLCLVTGRDFRWTIDYPWGPGELFLELETGGEHNALHQVYVTGATGGTYTLNVNGTNTPAIDYNDVSENPQGLAGDIQDALDAAVGAGNAVVHPVSLFPAWTLNFNLNASKPLTEQLVNTINKAANDFFDTFDQLLGVDVEMTVTDTLNFKLKVTSRRSFDEVGVVTFAVDVTSQAVINFFNSVAELTGAVNTVNVDFYWNRTYDIEFTGSLGLQPIPATTADITNLAGTSKAVSVTVVEPGKKRLTIWPFTVNGETATIKVESEEADKIPNRCRWQLVHMPTGEAAGGDAKQLGRVYRQPR
modifications: His6 tag
capture/binding of MAP cells (in words) ([1]; listed as Gp 6): did not capture any MAP cells | capture/binding of MAP cells (in words) ([1]; listed as Gp-6): not showing any bacterial capture | Capture efficiency of M. smegmatis cells [2]: 31.3±1.5×10^−3 cells/μm^2 | bacterial capture [2]: 31.3×10^−3 /μm^2 | capture/binding of M. smegmatis cells (in words) [2]: M. smegmatis specific; also recorded: bind only M. smegmatis cells | capture of M. marinum cells (in words) [3]: Neither of the two proteins was able to capture; also recorded: Neither Gp6 nor Gp10 was able to serve as a capturing agent | bacterial capture of non-host bacteria (in words) [4]: no bacterial capture | bacterial capture of non-host bacteria (in words) [5]: no bacterial capture | bacterial capture of non-host bacteria (in words) [6]: no bacterial capture

B2: Gp10: recombinant His-tagged lysin Gp10 of mycobacteriophage L5 (SEQ ID NO: 3) (protein)
chain: MHHHHHHSSGLVPRGSGMKETAAAKFERQHMDSPDLGTDDDDKAMADIGSEFMTFTVTRERAQWVHDMARARDGLPYAYGGAFTNNPRVSTDCSGLVLQTGAWYGGRTDWVGNRYGSTESFRLDHKIVYDLGFKRMPRGGPAALPIKPVMLVGLQHGGGGVYSHTACTLMTMDHPGGPVKMSDRGVDWESHGNRNGVGVELYEGARAWNDPLFHDFWYLDAVLEDEGDDDELADPVLGKMIREIHACLFNQTASTSDLATPGEGAIWQLHQKIHSIDGMLHPIHAERRARAGDLGELHRIVLAAKGLGVKRDEVTKRVYQSILADIERDNPEVLQRYIAERGGL
modifications: His6 tag
bacterial capture ([1]; gold surface, 20 μg/ml of RBP, MAP ATCC 19851): 12.3×10^−3 /μm^2 | capture/binding of MAP cells (in words) [1]: able to bind; also recorded: specifically bind | Capture efficiency of M. smegmatis cells [2]: 28.7±1.18×10^−3 cells/μm^2 | bacterial capture [2]: 28.7×10^−3 /μm^2 | capture/binding of M. smegmatis cells (in words) [2]: able to bind; also recorded: specifically bind | capture of M. marinum cells (in words) [3]: Neither of the two proteins was able to capture; also recorded: Neither Gp6 nor Gp10 was able to serve as a capturing agent | bacterial capture of non-host bacteria (in words) [4]: no bacterial capture | bacterial capture of non-host bacteria (in words) [5]: no bacterial capture | bacterial capture of non-host bacteria (in words) [6]: no bacterial capture | peptidoglycan binding (in words) ([7]; Gp10 purified from the soluble fraction, 0.1 mg/ml Gp10, 0.1 mg/ml peptidoglycan, 30 min, SDS-PAGE of supernatant): selectively remove recombinant Gp10 from the solution | peptidoglycan binding (in words) ([7]; refolded sample of Gp10 after 8 M urea extraction): retained the ability to bind peptidoglycan
